From article PMC2592534

Assays:
Assay in all cases: SPR
[1] = molecular target: rat ficolin-A O54A (rat) (UniProt Q9WTS8)
[2] = molecular target: rat ficolin-A P59A (rat) (UniProt Q9WTS8)
[3] = molecular target: rat ficolin-A M57S (rat)
[4] = molecular target: rat ficolin-A M57E (rat)

Chain of rat MASP-2A (catalytically inactive MBL-associated serine protease-2, Ser613 to Ala) (Q9JJS8 20-685 S632A): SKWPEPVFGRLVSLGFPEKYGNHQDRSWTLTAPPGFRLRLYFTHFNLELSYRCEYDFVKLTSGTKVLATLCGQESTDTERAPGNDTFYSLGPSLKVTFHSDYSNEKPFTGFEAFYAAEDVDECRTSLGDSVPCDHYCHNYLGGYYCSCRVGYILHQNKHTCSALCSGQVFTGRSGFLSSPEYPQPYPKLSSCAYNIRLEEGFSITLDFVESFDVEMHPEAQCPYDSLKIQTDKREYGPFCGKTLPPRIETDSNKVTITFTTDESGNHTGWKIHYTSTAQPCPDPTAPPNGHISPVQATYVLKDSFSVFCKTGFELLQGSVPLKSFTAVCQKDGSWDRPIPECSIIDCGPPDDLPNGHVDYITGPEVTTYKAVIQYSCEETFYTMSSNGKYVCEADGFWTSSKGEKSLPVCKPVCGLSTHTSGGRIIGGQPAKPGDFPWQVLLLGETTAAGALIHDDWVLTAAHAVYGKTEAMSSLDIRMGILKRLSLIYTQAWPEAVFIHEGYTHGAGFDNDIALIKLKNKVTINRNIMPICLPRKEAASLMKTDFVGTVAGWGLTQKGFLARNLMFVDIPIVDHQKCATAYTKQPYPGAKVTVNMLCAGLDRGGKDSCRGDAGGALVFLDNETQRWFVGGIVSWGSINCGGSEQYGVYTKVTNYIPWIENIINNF
Chain of rat ficolin-A P59A (rat) (Q9WTS8 18-335 P76A): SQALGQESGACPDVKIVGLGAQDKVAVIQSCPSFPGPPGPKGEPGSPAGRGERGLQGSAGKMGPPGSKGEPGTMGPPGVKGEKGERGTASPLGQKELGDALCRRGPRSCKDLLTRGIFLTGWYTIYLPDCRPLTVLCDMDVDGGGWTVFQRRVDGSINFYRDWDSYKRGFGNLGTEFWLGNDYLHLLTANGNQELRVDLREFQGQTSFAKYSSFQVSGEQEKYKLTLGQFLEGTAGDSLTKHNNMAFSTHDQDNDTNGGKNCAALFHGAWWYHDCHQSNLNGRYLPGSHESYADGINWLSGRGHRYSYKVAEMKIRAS
Chain of rat ficolin-A O54A (rat) (Q9WTS8 18-335 P54A): as the sequence (Q9WTS8 18-335 P76A) above, with P37A, A59P counted along it

KD2 (apparent, two-complex, parallel reaction model) [1]: 153 nM | KD1 (apparent, two-complex, parallel reaction model) [2]: 6.8 nM | KD2 (apparent, two-complex, parallel reaction model) [2]: 253 nM | kon of complex 2 (two-complex, parallel reaction model) [2]: 42000 M⁻¹ s⁻¹ | KD1 (apparent, two-complex, parallel reaction model) [3]: 11.6 nM | KD2 (apparent, two-complex, parallel reaction model) [3]: 133 nM | koff of complex 2 (two-complex, parallel reaction model) [3]: 0.0048 s⁻¹ | kon of complex 2 (two-complex, parallel reaction model) [3]: 37000 M⁻¹ s⁻¹ | KD1 (apparent, two-complex, parallel reaction model) [4]: 49 nM | KD2 (apparent, two-complex, parallel reaction model) [4]: 3.23 µM | koff of complex 2 (two-complex, parallel reaction model) [4]: 0.0094 s⁻¹
Substance: rat MASP-2A (catalytically inactive MBL-associated serine protease-2, Ser613 to Ala) (from UniProt Q9JJS8 20-685) (enzyme)
kon of complex 1 (two-complex, parallel reaction model) [2]: 1.13e+06 M⁻¹ s⁻¹ | kon of complex 1 (two-complex, parallel reaction model) [3]: 410000 M⁻¹ s⁻¹
